Consider one molecule from article doi:10.1101/2020.09.12.286559 (bioRxiv, 2020).

In assay [1] the target is T1, N-terminal HA-tagged TIN2L (HA-TIN2L, 1-451 aa) (human, UniProt Q9BSI4-1 1-451).
T1 sequence: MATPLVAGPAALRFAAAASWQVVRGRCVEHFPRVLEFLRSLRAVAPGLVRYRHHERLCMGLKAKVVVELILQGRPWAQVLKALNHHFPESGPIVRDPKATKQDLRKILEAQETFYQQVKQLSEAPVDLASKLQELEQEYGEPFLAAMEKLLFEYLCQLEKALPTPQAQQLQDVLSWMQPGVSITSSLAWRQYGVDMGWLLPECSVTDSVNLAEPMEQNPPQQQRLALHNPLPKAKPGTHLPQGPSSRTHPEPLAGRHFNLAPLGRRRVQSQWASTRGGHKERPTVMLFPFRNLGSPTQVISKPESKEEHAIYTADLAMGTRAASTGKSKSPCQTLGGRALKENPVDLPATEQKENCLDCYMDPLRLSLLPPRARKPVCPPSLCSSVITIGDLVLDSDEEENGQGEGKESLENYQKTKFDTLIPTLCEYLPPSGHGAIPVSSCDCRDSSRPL
Kind of assay: native gel or EMSA. For orientation: A gel shift assay detects complexes by their altered migration in electrophoresis.

Assay [2] addresses T2, Recombinant N-terminal His6-tagged TRF1 (human), P54274.
T2 chain: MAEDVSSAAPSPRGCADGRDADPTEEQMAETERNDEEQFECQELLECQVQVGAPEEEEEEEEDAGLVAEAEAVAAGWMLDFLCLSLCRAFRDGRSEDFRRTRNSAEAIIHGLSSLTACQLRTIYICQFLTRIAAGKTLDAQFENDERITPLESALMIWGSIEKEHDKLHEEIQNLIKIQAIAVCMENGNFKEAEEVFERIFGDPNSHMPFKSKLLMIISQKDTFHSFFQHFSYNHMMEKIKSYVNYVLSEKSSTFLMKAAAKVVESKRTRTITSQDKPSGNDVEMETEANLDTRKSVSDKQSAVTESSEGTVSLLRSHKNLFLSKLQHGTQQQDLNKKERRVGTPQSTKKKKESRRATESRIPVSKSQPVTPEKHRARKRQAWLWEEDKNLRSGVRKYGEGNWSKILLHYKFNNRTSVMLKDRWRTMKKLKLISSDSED
The experiment in a line: AFM volume analysis. The note with it: remark: other sources report otherwise.

B1: Recombinant N-terminal His6-tagged TRF1 (natural protein)
chain: MAEDVSSAAPSPRGCADGRDADPTEEQMAETERNDEEQFECQELLECQVQVGAPEEEEEEEEDAGLVAEAEAVAAGWMLDFLCLSLCRAFRDGRSEDFRRTRNSAEAIIHGLSSLTACQLRTIYICQFLTRIAAGKTLDAQFENDERITPLESALMIWGSIEKEHDKLHEEIQNLIKIQAIAVCMENGNFKEAEEVFERIFGDPNSHMPFKSKLLMIISQKDTFHSFFQHFSYNHMMEKIKSYVNYVLSEKSSTFLMKAAAKVVESKRTRTITSQDKPSGNDVEMETEANLDTRKSVSDKQSAVTESSEGTVSLLRSHKNLFLSKLQHGTQQQDLNKKERRVGTPQSTKKKKESRRATESRIPVSKSQPVTPEKHRARKRQAWLWEEDKNLRSGVRKYGEGNWSKILLHYKFNNRTSVMLKDRWRTMKKLKLISSDSED
For the molecule B1, in assay [1], the binding result is recorded as “binds”. In addition, in assay [2], the stoichiometry N (commonly the number of molecules, sites or subunits per partner or assembly) is 2.
